Data: IntAct's records for PubMed 26728129

B1: Calcium/manganese antiporter SLC30A10 (Homo sapiens), Q6XR72 (parent)
chain: MGRYSGKTCRLLFMLVLTVAFFVAELVSGYLGNSIALLSDSFNMLSDLISLCVGLSAGYIARRPTRGFSATYGYARAEVVGALSNAVFLTALCFTIFVEAVLRLARPERIDDPELVLIVGVLGLLVNVVGLLIFQDCAAWFACCLRGRSRRLQQRQQLAEGCVPGAFGGPQGAEDPRRAADPTAPGSDSAVTLRGTSVERKREKGATVFANVAGDSFNTQNEPEDMMKKEKKSEALNIRGVLLHVMGDALGSVVVVITAIIFYVLPLKSEDPCNWQCYIDPSLTVLMVIIILSSAFPLIKETAAILLQMVPKGVNMEELMSKLSAVPGISSVHEVHIWELVSGKIIATLHIKYPKDRGYQDASTKIREIFHHAGIHNVTIQFENVDLKEPLEQKDLLLLCNSPCISKGCAKQLCCPPGALPLAHVNGCAEHNGGPSLDTYGSDGLSRRDAREVAIEVSLDSCLSDHGQSLNKTQEDQCYVNRTHF
partner: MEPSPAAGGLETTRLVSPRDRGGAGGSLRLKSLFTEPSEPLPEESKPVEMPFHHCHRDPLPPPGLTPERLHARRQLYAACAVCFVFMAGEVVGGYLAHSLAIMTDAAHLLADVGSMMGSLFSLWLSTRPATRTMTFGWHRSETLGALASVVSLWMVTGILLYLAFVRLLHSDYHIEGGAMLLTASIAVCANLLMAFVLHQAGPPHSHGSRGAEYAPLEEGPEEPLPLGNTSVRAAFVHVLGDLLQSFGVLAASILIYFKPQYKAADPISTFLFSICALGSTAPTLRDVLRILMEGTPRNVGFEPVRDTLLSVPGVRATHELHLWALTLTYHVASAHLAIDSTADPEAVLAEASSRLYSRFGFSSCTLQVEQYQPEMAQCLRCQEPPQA
B2: Probable proton-coupled zinc antiporter SLC30A3 (Homo sapiens), Q99726 (parent)
chain: B1 partner
partner: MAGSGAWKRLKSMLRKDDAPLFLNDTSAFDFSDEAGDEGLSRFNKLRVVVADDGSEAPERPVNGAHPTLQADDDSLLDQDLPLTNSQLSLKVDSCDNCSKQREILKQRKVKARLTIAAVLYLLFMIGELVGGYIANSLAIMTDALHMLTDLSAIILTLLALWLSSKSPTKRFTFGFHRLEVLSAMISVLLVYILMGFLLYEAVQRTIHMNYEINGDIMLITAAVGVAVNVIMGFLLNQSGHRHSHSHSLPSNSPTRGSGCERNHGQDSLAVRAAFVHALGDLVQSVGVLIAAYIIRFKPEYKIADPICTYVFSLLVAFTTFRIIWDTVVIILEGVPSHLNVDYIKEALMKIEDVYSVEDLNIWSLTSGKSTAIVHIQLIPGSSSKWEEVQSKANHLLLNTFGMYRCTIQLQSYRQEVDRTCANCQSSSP
B3: Probable proton-coupled zinc antiporter SLC30A3 (Homo sapiens), Q99726 (parent)
chain: B1 partner
partner: B1 chain

Variants of: B1
Settings: with znt3_human SLC30A3, Q99726

effect of a mutation on the interaction | Variant
decreasing interaction strength | MGRFSGKTCRLLFMLVLTVAFFVAELVSGYLGNSIALLSDSFNMLSDLISLCVGLSAGYIARRPTRGFSATYGYARAEVVGALSNAVFLTALCFTIFVEAVLRLARPERIDDPELVLIVGVLGLLVNVVGLLIFQDCAAWFACCLRGRSRRLQQRQQLAEGCVPGAFGGPQGAEDPRRAADPTAPGSDSAVTLRGTSVERKREKGATVFANVAGDSFNTQNEPEDMMKKEKKSEALNIRGVLLHVMGDALGSVVVVITAIIFYVLPLKSEDPCNWQCYIDPSLTVLMVIIILSSAFPLIKETAAILLQMVPKGVNMEELMSKLSAVPGISSVHEVHIWELVSGKIIATLHIKYPKDRGYQDASTKIREIFHHAGIHNVTIQFENVDLKEPLEQKDLLLLCNSPCISKGCAKQLCCPPGALPLAHVNGCAEHNGGPSLDTYGSDGLSRRDAREVAIEVSLDSCLSDHGQSLNKTQEDQCYVNRTHF [Y4F]

Variants of: B2
Settings: with znt4_human SLC30A4, O14863

effect of a mutation on the interaction | Variant
decreasing interaction strength | MEPSPAAGGLETTRLVSPRDRGGAGGSLRLKSLFTEPSEPLPEESKPVEMPFHHCHRDPLPPPGLTPERLHARRQLYAACAVCFVFMAGEVVGGYLAHSLAIMTDAAHLLADVGSMMGSLFSLWLSTRPATRTMTFGWHRSETLGALASVVSLWMVTGILLYLAFVRLLHSDYHIEGGAMLLTASIAVCANLLMAFVLHQAGPPHSHGSRGAEYAPLEEGPEEPLPLGNTSVRAAFVHVLGDLLQSFGVLAASILIYFKPQFKAADPISTFLFSICALGSTAPTLRDVLRILMEGTPRNVGFEPVRDTLLSVPGVRATHELHLWALTLTYHVASAHLAIDSTADPEAVLAEASSRLYSRFGFSSCTLQVEQYQPEMAQCLRCQEPPQA [Y262F]
decreasing interaction strength | MEPSPAAGGLETTRLVSPRDRGGAGGSLRLKSLFTEPSEPLPEESKPVEMPFHHCHRDPLPPPGLTPERLHARRQLYAACAVCFVFMAGEVVGGYLAHSLAIMTDAAHLLADVGSMMGSLFSLWLSTRPATRTMTFGWHRSETLGALASVVSLWMVTGILLYLAFVRLLHSDYHIEGGAMLLTASIAVCANLLMAFVLHQAGPPHSHGSRGAEYAPLEEGPEEPLPLGNTSVRAAFVHVLGDLLQSFGVLAASILIFFKPQYKAADPISTFLFSICALGSTAPTLRDVLRILMEGTPRNVGFEPVRDTLLSVPGVRATHELHLWALTLTYHVASAHLAIDSTADPEAVLAEASSRLYSRFGFSSCTLQVEQYQPEMAQCLRCQEPPQA [Y257F]

Variants of: B3
Settings: with znt10_human SLC30A10, Q6XR72

effect of a mutation on the interaction | Variant
decreasing interaction strength | MEPSPAAGGLETTRLVSPRDRGGAGGSLRLKSLFTEPSEPLPEESKPVEMPFHHCHRDPLPPPGLTPERLHARRQLYAACAVCFVFMAGEVVGGYLAHSLAIMTDAAHLLADVGSMMGSLFSLWLSTRPATRTMTFGWHRSETLGALASVVSLWMVTGILLYLAFVRLLHSDYHIEGGAMLLTASIAVCANLLMAFVLHQAGPPHSHGSRGAEYAPLEEGPEEPLPLGNTSVRAAFVHVLGDLLQSFGVLAASILIFFKPQYKAADPISTFLFSICALGSTAPTLRDVLRILMEGTPRNVGFEPVRDTLLSVPGVRATHELHLWALTLTYHVASAHLAIDSTADPEAVLAEASSRLYSRFGFSSCTLQVEQYQPEMAQCLRCQEPPQA [Y257F]
decreasing interaction strength | MEPSPAAGGLETTRLVSPRDRGGAGGSLRLKSLFTEPSEPLPEESKPVEMPFHHCHRDPLPPPGLTPERLHARRQLYAACAVCFVFMAGEVVGGYLAHSLAIMTDAAHLLADVGSMMGSLFSLWLSTRPATRTMTFGWHRSETLGALASVVSLWMVTGILLYLAFVRLLHSDYHIEGGAMLLTASIAVCANLLMAFVLHQAGPPHSHGSRGAEYAPLEEGPEEPLPLGNTSVRAAFVHVLGDLLQSFGVLAASILIYFKPQFKAADPISTFLFSICALGSTAPTLRDVLRILMEGTPRNVGFEPVRDTLLSVPGVRATHELHLWALTLTYHVASAHLAIDSTADPEAVLAEASSRLYSRFGFSSCTLQVEQYQPEMAQCLRCQEPPQA [Y262F]
